Here are results for three substances from publication PMC3433420.

For test [1], the target named is ABL2 SH2 domain (human) (UniProt P42684). Put plainly: peptide or protein array; SH2/PTB proteins spotted on aldehyde slides, rhodamine peptide titrated in buffer B (20 mM HEPES, 100 mM KCl, 0.1% Tween-20, 5 mM DTT, pH 7.8), 1 h at room temperature; replicate assays.
Test [2] concerns the target BLK SH2 domain (human) (UniProt P51451). The description is as above.
Test [3] has as its target BLNK SH2 domain (human) (UniProt Q8WV28). The test is described as above.
Test [4] addresses BTK SH2 domain (human) (UniProt Q06187). Described as above.
Test [5] concerns the target HCK SH2 domain (human) (UniProt P08631). Described as above.
The target in test [6] is NCK1 SH2 domain (human) (UniProt P16333). Described as above.
Test [7] has as its target PIK3R2 tandem SH2 domains (human) (UniProt O00459). Described as above.
Test [8] deals with PLCG2 tandem SH2 domains (human). The description is as above.
In test [9] the target is PTK6 SH2 domain (human) (UniProt Q13882). Described as above.
Sequence of PTK6 SH2 domain (human) (Q13882 78-170): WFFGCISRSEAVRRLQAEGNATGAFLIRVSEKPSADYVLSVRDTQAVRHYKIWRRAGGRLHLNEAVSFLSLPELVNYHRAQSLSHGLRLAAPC
Test [10] deals with PTPN6 tandem SH2 domains (human). Described as above.
Test [11] concerns the target RASA1 N-terminal SH2 domain (human) (UniProt P20936). The test is described as above.
Test [12] concerns the target RASA1 tandem SH2 domains (human). The test is described as above.
Test [13] concerns the target SH2D1A SH2 domain (human) (UniProt O60880). The description is as above.
Test [14] has as its target SH2D3A SH2 domain (human) (UniProt Q9BRG2). Described as above.
Test [15] concerns the target SH2D3C SH2 domain (human) (UniProt Q8N5H7). The test is described as above.
The target of test [16] is SH3BP2 SH2 domain (human) (UniProt P78314). The description is as above.
Sequence of SH3BP2 SH2 domain (human) (P78314 457-555): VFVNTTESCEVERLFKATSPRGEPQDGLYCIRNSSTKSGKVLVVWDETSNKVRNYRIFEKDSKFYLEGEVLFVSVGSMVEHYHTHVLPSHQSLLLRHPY
The target of test [17] is SHF SH2 domain (human) (UniProt Q7M4L6). Described as above.
Sequence of SHF SH2 domain (human) (Q7M4L6 323-418): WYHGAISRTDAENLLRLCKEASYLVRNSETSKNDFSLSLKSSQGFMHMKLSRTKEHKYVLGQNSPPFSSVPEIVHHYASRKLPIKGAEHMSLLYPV
Test [18] concerns the target SRC SH2 domain (human) (UniProt P12931). The test is described as above.
Test [19] has as its target SYK C-terminal SH2 domain (human). The test is described as above.
Test [20] has as its target SYK N-terminal SH2 domain (human). The description is as above.
The target in test [21] is SYK tandem SH2 domains (human). The description is as above.
In test [22] the target is TEC SH2 domain (human) (UniProt P42680). The test is described as above.
Sequence of TEC SH2 domain (human) (P42680 247-345): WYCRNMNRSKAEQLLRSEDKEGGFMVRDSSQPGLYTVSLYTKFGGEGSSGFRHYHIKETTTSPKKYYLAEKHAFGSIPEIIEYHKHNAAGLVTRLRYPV
In test [23] the target is TNS1 SH2 domain (human) (UniProt Q9HBL0). Described as above.
Sequence of TNS1 SH2 domain (human) (Q9HBL0 1567-1676): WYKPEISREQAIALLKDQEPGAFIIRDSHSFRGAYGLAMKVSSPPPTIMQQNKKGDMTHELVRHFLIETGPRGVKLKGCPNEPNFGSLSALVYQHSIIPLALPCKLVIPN
Test [24] addresses YES1 SH2 domain (human) (UniProt P07947). The test is described as above.
In test [25] the target is ErbB2 Y1221 non-phosphorylated peptide, rhodamine-labelled (human). Put plainly: fluorescence polarisation; saturation binding in solution: rhodamine peptide fixed at 10 nM, protein titrated 0.002-10 uM, 20 min at room temperature; assay buffer 20 mM HEPES, 100 mM KCl, 0.1% Tween-20, 5 mM DTT, pH 7.8; apparent KD. On the technique in general: Polarisation of emitted light reports the rotation of a fluorescent probe.

The target of test [26] is ErbB2pY1196 phosphopeptide, rhodamine-labelled (human). The test is described as above.
Test [27] addresses ErbB3pY1307 phosphopeptide, rhodamine-labelled (human). The test is described as above.
Test [28] deals with ErbB2 Y735 non-phosphorylated peptide, rhodamine-labelled (human). The test is described as above.

pKd: −log10 of the molar value. “And” between values parts separate entries of the source, which are not always exact repeats. Identical values can stand only once.

Sequence of BLK SH2 domain (human) (P51451 124-220): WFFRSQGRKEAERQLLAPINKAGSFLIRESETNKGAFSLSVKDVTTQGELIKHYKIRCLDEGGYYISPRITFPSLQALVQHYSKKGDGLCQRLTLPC
Sequence of SH2D1A SH2 domain (human) (O60880 6-104): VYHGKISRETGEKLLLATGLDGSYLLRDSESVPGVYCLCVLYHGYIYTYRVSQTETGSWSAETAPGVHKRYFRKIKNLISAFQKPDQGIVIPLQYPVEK
Sequence of YES1 SH2 domain (human) (P07947 158-255): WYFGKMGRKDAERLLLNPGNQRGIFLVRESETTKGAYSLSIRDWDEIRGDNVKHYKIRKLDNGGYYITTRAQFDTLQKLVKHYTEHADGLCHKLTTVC
Sequence of HCK SH2 domain (human) (P08631 144-241): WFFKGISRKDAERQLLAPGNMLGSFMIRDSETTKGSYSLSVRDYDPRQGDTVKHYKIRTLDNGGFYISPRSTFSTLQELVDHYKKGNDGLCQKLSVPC
Sequence of BTK SH2 domain (human) (Q06187 281-377): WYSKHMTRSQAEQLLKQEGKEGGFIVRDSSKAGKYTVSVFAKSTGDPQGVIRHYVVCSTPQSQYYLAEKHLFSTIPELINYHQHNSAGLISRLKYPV
Sequence of BLNK SH2 domain (human) (Q8WV28 346-453): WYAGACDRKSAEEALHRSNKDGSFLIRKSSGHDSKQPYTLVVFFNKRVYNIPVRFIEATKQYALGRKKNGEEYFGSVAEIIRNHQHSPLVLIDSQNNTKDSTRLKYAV
Sequence of RASA1 N-terminal SH2 domain (human) (P20936 whole entry, the tested form may be a part): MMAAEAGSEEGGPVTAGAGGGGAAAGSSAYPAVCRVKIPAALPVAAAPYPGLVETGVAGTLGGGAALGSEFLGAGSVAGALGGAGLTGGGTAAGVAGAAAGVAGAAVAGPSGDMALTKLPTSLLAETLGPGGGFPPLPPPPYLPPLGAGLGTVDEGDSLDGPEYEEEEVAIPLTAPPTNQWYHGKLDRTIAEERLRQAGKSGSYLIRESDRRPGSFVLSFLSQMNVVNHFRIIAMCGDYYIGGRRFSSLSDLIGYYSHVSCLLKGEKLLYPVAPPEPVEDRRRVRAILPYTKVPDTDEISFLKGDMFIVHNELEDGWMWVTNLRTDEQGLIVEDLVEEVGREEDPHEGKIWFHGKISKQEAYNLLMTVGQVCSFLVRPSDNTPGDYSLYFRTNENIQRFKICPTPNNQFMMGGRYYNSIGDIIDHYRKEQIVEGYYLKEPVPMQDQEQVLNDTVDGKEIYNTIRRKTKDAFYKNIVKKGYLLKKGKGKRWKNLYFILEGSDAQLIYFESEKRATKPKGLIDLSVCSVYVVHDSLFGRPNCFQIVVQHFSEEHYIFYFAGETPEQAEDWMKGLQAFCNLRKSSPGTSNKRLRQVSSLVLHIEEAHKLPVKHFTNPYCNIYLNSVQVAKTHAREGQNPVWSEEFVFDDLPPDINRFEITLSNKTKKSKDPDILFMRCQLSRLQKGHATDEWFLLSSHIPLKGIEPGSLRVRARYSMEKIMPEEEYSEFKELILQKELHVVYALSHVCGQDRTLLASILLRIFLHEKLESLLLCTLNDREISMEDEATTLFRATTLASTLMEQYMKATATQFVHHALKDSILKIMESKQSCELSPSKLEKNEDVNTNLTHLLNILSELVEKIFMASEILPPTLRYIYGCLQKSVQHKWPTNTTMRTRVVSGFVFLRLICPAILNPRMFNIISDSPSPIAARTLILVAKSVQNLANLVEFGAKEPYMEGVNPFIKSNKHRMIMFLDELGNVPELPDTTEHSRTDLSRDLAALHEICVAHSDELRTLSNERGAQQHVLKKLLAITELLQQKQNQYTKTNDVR
Sequence of ABL2 SH2 domain (human) (P42684 173-263): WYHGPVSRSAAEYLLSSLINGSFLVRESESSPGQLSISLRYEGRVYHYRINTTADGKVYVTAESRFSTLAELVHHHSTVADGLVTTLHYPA
Sequence of PIK3R2 tandem SH2 domains (human) (O00459 whole entry, the tested form may be a part): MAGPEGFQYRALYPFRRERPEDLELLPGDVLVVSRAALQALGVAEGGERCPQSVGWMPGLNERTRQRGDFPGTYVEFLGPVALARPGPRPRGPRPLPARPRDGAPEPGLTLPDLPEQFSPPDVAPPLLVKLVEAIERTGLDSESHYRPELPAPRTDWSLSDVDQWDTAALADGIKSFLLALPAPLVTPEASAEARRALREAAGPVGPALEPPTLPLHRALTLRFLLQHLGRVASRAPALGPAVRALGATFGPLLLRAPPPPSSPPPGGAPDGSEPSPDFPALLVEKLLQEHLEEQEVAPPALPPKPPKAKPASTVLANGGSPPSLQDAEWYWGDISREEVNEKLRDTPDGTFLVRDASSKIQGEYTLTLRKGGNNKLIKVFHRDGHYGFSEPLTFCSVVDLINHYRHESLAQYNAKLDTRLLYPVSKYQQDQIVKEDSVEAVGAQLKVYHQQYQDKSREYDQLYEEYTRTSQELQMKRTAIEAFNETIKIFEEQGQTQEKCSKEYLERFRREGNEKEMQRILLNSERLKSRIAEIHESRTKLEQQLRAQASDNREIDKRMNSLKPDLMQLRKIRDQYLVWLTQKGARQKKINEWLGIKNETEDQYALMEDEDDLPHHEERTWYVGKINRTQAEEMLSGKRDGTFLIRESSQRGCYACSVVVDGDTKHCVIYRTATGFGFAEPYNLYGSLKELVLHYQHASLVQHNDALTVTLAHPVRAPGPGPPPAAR
Sequence of SH2D3C SH2 domain (human) (Q8N5H7 220-319): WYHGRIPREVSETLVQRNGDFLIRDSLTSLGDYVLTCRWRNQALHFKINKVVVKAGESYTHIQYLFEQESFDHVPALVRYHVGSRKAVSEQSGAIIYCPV
Sequence of SH2D3A SH2 domain (human) (Q9BRG2 15-114): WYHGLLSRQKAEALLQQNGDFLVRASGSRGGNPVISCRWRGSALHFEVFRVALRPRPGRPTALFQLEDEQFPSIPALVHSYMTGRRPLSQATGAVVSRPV

For orientation: pKd means −log10 of the Kd, conventionally taken in molar units. Regarding “ErbB2 pY735 phosphopeptide, rhodamine-labelled, for protein microarrays”, the negative logarithm of the Kd (pKd) is 5.99 in test [1]; 6.10 and 6.29 in [2]; 4.33 in [3]; 5.82 in [4]; 6.05 in [5]; 5.28 in test [6]. Moreover, the negative logarithm of the Kd (pKd) in test [7] was 5.83; in [8], 6.24 and 5.54 and 5.99; in test [9], 6.10; in test [10] it was 5.27; in [11], 5.46; in test [12] it was 4.09. In addition, the pKd in test [13] was 6.13 and 5.79; in [14], 6.11; in test [15], 4.56; in test [16] it was 5.41 and 5.80 and 6.20; in test [17], 6.03 and 5.36; in test [18], 5.92. Moreover, the pKd in [19] is 6.04; in test [20], 6.10 and 5.52; in test [21], 6.23 and 6.09; in test [22] it was 5.49 and 5.06; in test [23], 5.80; in [24], 6.28 and 5.79.
For the substance “RASA1 N-terminal SH2 domain (from UniProt P20936 1-1047) (domain or fragment)”, the pKd in [25] was 5.43; in [26] it was 5.73; in test [27], 5.73.
Regarding “ZAP70 C-terminal SH2 domain (from UniProt P43403 1-619) (domain or fragment)”, the pKd in [28] is 4.83.
